Data reported in the supplement of paper PMC10567573.

B1: PI4K2A (parent)
chain: FVKDPQGRIIAVFKPKNEEPYGHL

Variants of: B1
Test: protein stability index of a GFP-peptide fusion (GPS, HEK-293T) (PSI 1-6); higher = more stable
Conditions: c terminus: a fixed tail appended
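Note: lentivirally expressed fusions sorted by FACS into six bins by GFP to DsRed ratio, PSI derived from sequencing read proportions per bin multiplied by bin number.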

Question: With FVKDPQGRIIAVFKMKNEEPYGHL [P15M] as the variant, how does the protein stability index read?
Answer: The protein stability index was 2.1.

Question: For FVKDPQGRIIAVFKYKNEEPYGHL [P15Y], which protein stability index is on record?
Answer: The protein stability index was 2.4.

Question: With FVKDPQGRIIAVFKHKNEEPYGHL [P15H] as the variant, how does the protein stability index read?
Answer: The protein stability index was 1.58.

Question: Which protein stability index does the source give for FVKDPQGRIIAVFKSKNEEPYGHL [P15S] here?
Answer: The protein stability index was 1.96.

Question: For FVKDPQGRIIAVFKKKNEEPYGHL [P15K], which protein stability index is on record?
Answer: Its protein stability index is 2.45.

Question: With FVKDPQGRIIAVFKFKNEEPYGHL [P15F] as the variant, how does the protein stability index read?
Answer: The protein stability index was 1.77.

Question: Which protein stability index does the source give for FVKDPQGRIIAVFKGKNEEPYGHL [P15G] here?
Answer: Its protein stability index is 2.5.

Question: For FVKDPQGRIIAVFKWKNEEPYGHL [P15W], which protein stability index is on record?
Answer: The protein stability index was 1.08.

Question: For FVKDPQGRIIAVFKNKNEEPYGHL [P15N], which protein stability index is on record?
Answer: Its protein stability index is 2.26.

Question: With FVKDPQGRIIAVFWPKNEEPYGHL [K14W] as the variant, how does the protein stability index read?
Answer: The protein stability index was 1.78.

Question: With FVKDPQGRIIAVFHPKNEEPYGHL [K14H] as the variant, how does the protein stability index read?
Answer: The protein stability index was 2.03.

Question: With FVKDPQGRIIAVFDPKNEEPYGHL [K14D] as the variant, how does the protein stability index read?
Answer: Its protein stability index is 2.49.

Question: For FVKDPQGRIIAVFLPKNEEPYGHL [K14L], which protein stability index is on record?
Answer: Its protein stability index is 2.08.

Question: With FVKDPQGRIIAVFIPKNEEPYGHL [K14I] as the variant, how does the protein stability index read?
Answer: Its protein stability index is 1.97.

Question: For FVKDPQGRIIAVFYPKNEEPYGHL [K14Y], which protein stability index is on record?
Answer: Its protein stability index is 2.23.

Question: For FVKDPQGRIIAVFEPKNEEPYGHL [K14E], which protein stability index is on record?
Answer: Its protein stability index is 2.09.

Question: For FVKDPQGRIIAVFCPKNEEPYGHL [K14C], which protein stability index is on record?
Answer: Its protein stability index is 2.56.

Question: With FVKDPQGRIIAVFRPKNEEPYGHL [K14R] as the variant, how does the protein stability index read?
Answer: Its protein stability index is 1.18.

Question: With FVKDPQGRIIAVFAPKNEEPYGHL [K14A] as the variant, how does the protein stability index read?
Answer: Its protein stability index is 2.09.

Question: Which protein stability index does the source give for FVKDPQGRIIAVFVPKNEEPYGHL [K14V] here?
Answer: Its protein stability index is 1.47.

Question: Which protein stability index does the source give for FVKDPQGRIIAVFTPKNEEPYGHL [K14T] here?
Answer: The protein stability index was 2.17.

Question: With FVKDPQGRIIAVFFPKNEEPYGHL [K14F] as the variant, how does the protein stability index read?
Answer: Its protein stability index is 2.67.

Question: With FVKDPQGRIIAVFGPKNEEPYGHL [K14G] as the variant, how does the protein stability index read?
Answer: The protein stability index was 2.46.

Question: For FVKDPQGRIIAVFPPKNEEPYGHL [K14P], which protein stability index is on record?
Answer: The protein stability index was 2.07.

Question: Which protein stability index does the source give for FVKDPQGRIIAVFNPKNEEPYGHL [K14N] here?
Answer: The protein stability index was 1.13.

Question: For FVKDPQGRIIAVFSPKNEEPYGHL [K14S], which protein stability index is on record?
Answer: The protein stability index was 3.13.

Question: Which protein stability index does the source give for FVKDPQGRIIAVFQPKNEEPYGHL [K14Q] here?
Answer: The protein stability index was 2.2.

Question: Which protein stability index does the source give for FVKDPQGRIIAVFMPKNEEPYGHL [K14M] here?
Answer: Its protein stability index is 3.22.

Question: For FVKDPQGRIIAVFKPKREEPYGHL [N17R], which protein stability index is on record?
Answer: Its protein stability index is 1.3.

Question: Which protein stability index does the source give for FVKDPQGRIIAVFKPKHEEPYGHL [N17H] here?
Answer: Its protein stability index is 2.38.

Question: With FVKDPQGRIIAVFKPKKEEPYGHL [N17K] as the variant, how does the protein stability index read?
Answer: The protein stability index was 1.73.

Question: For FVKDPQGRIIAVFKPKLEEPYGHL [N17L], which protein stability index is on record?
Answer: Its protein stability index is 2.35.

Question: Which protein stability index does the source give for FVKDPQGRIIAVFKPKEEEPYGHL [N17E] here?
Answer: Its protein stability index is 2.33.

Question: Which protein stability index does the source give for FVKDPQGRIIAVFKPKCEEPYGHL [N17C] here?
Answer: The protein stability index was 2.31.

Question: For FVKDPQGRIIAVFKPKAEEPYGHL [N17A], which protein stability index is on record?
Answer: The protein stability index was 2.52.

Question: With FVKDPQGRIIAVFKPKFEEPYGHL [N17F] as the variant, how does the protein stability index read?
Answer: The protein stability index was 1.57.

Question: For FVKDPQGRIIAVFKPKDEEPYGHL [N17D], which protein stability index is on record?
Answer: Its protein stability index is 1.84.

Question: With FVKDPQGRIIAVFKPKMEEPYGHL [N17M] as the variant, how does the protein stability index read?
Answer: The protein stability index was 1.9.

Question: For FVKDPQGRIIAVFKPKTEEPYGHL [N17T], which protein stability index is on record?
Answer: The protein stability index was 1.92.

Question: Which protein stability index does the source give for FVKDPQGRIIAVFKPKVEEPYGHL [N17V] here?
Answer: Its protein stability index is 1.66.

Question: Which protein stability index does the source give for FVKDPQGRIIAVFKPKIEEPYGHL [N17I] here?
Answer: Its protein stability index is 1.63.

Question: With FVKDPQGRIIAVFKPKGEEPYGHL [N17G] as the variant, how does the protein stability index read?
Answer: Its protein stability index is 1.48.

Question: With FVKDPQGRIIAVFKPKSEEPYGHL [N17S] as the variant, how does the protein stability index read?
Answer: The protein stability index was 1.64.

Question: Which protein stability index does the source give for FVKDPQGRIIAVFKPKYEEPYGHL [N17Y] here?
Answer: Its protein stability index is 1.68.

Question: Which protein stability index does the source give for FVKDPQGRIIAVFKPKWEEPYGHL [N17W] here?
Answer: The protein stability index was 2.41.

Question: With FVKDPQGRIIAVFKPKPEEPYGHL [N17P] as the variant, how does the protein stability index read?
Answer: The protein stability index was 2.

Question: For FVKDPQGRIIAVFKPKQEEPYGHL [N17Q], which protein stability index is on record?
Answer: The protein stability index was 1.97.
